Measured values: patent US12258605B2, “Alkane oxidation by modified hydroxylases” (The California Institute of Technology, priority 2005, dated 2025)

Legend:
[1] = Chloromethane dehalogenation (Purpald detection of formaldehyde); assay type: biochemical; conditions: chloromethane, cofactor regeneration system
Source text: The dehalogenation reaction is based on the hydroxylation of the carbon atom carrying the halogen by a spontaneous (base catalyzed) alpha-elimination reaction which leads to the formation of an aldehyde or ketone depending on the starting haloalkane. The expected reaction mechanism for the dehalogenation of a general alpha-haloalkane is described by the scheme:
To test the feasibility of this approach, chloromethane was chosen as substrate for the dehalogenation reaction. Compared to other haloalkanes, chloromethane (CM) has the advantage to be moderately soluble in water (0.5 g/100 ml) and to lead to formaldehyde as end product of the hydroxylation/alpha-elimination reaction. Formaldehyde can be then readily detected by colorimetric reaction with Purpald as described previously. To test the reaction, two BM-3 mutants from later rounds of random mutagenesis, 35-E1141 and 20-D3, were incubated in the presence of CM and a cofactor regeneration system based on NADP^+, glucose-6-phosphate and glucose-6-phosphate dehydrogenase. Reactions with wild-type P450 BM-3 and without enzyme were included as controls.
The reaction was repeated in the presence of additional BM-3 mutants, including 1-8H, 1-12G2 and the wild-type P450 BM-3 in which A328 was substituted with valine (BM-3-A328V) (FIG. 27B). […] Wild-type BM-3 was substituted with other amino acid residues at position […].
The activity of BM-3-A328V on CM and other substrates such as HME, DME, and propane was further investigated by measuring product formation rate, cofactor consumption and coupling efficiency (Table 14). This mutant was also found to be capable to hydroxylate ethane to ethanol, although only for a total of about 5-10 turnovers. In Table 14 “consumption” rates are expressed as nmol NADPH/nmol enzyme/min and “product formation” rates are expressed as nmol product/nmol enzyme/min.

[2] = Kinetic constants for n-alkanes: heptane; assay type: biochemical; conditions: N.m = not measurable; for Km: read-out: Km
Description: Rate measurements. Initial rates of product formation were determined at 25° C. in 100 mM KPi pH 8.0 buffer using purified protein (100 nM) and a substrate concentration of 1.6 mM. In a 5 mL-vial, 20 μL of alkane solution (in ethanol) were dissolved in 400 μL KPi buffer, to which 500 μL enzyme solution at 100-200 nM was added. Reaction was initiated by adding 100 μL of 5 mM NADPH solution, followed by stirring at 300 rpm for 1 minute, and quenched by adding 200 μL chloroform and stirring at 800 rpm for 10 sec. Solutions were transferred to an Eppendorf tube, to which internal standard (10 μL 25 mM 1-bromohexane in ethanol) was added. Tubes were vortexed for 10 sec and centrifuged for 30 sec at 10,000 g. Organic phase was removed and analyzed by GC. For propane, reactions were carried out in a 5 mL-scale using 100-400 nM purified enzyme, propane-saturated buffer (propane concentration≈1.6 mM) and a final NADPH concentration of 500 μM. Reactions were stopped by addition of 200 μL H2SO4 conc. and analyzed by derivatization to alkyl nitrites followed by GC-ECD analysis as described below.
Products from alkane reactions were identified and quantified by gas chromatography using authentic standards and calibration curves with internal standards. For the reactions with alkanes from pentane to decane, GC analyses were carried out using a Shimadzu GC-17A gas chromatograph, Agilent HP5 column (30 m×0.32 mm×0.1 μm film), 1 μL injection, FID detector, and the following separation program: 250° C. inlet, 250° C. detector, 50° C. oven for 3 min, 5° C./min gradient to 100° C., 25° C./min gradient to 230° C., and 230° C. for 3 min. For butane and propane (TTN) reactions, GC analyses were carried out using a Hewlett-Packard 5890 Series II Plus gas chromatograph, Supelco SPB-1 column (60 m×0.52 mm×0.5 μm film), 0.5 μL injection, FID detector, and the following separation program: 250° C. inlet, 275° C. detector, 80° C. oven for 2 min, 10° C./min gradient to 110° C., 25° C./min gradient to 275° C., and 275° C. for 2.5 min. For ethane and propane (rate) reactions, analysis of reaction mixtures was carried out by derivatization to alkyl nitrites followed by GC-ECD analysis. For laurate, reaction product analysis was carried out by derivatization with N-methyl-N-trimethylsilylheptafluorobutyramide followed by extraction with hexane. Organic solutions were analyzed by FID-GC.
To further investigate the evolution of substrate specificity, kinetic constants for the C5 to C8 alkanes were determined from Michaelis-Menten plots (Table 19). The preference of 35E11 and its evolutionary predecessors for medium-chain alkanes is indicated by their high C8/C5 specificities ((kcat/Km)8/(kcat/Km)5˜100), where Km appears to be the major contributing factor. C8/C5 specificity decreases to ˜5 in the immediate precursors of P450PMO and then switches altogether to the smaller alkane, becoming 0.4 in P450PMO. In P450PMO, catalytic efficiency is highest on propane and decreases along the alkane series, driven by decreasing kcat.

Molecule	colorimetric response (Purpald) [1]	kcat [2] [s⁻¹]	Km [2] [µM]
35-E11: P450 BM-3 variant, SEQ ID NO:7: 53-5H substitutions plus E464G and I710T (protein, mutant P450 35-E11 protein sequence) TIKEMPQPKTFGELKNLPLLNTDKPVQALMKIADELGEIFKFEAPGCVTRYLSSQRLIKEACDESRFDKNLSQALKFFRDFSGDGLFTSWTHEINWKKAHNILLPSFSQQAMKGYHAMMVDIAVQLVQKWERLNADEHIEVSEDMTRLTLDTIGLCGFNYRFNSFYRDQPHPFIISMVRALDEVMNKLQRANPDDPAYDENKRQCQEDIKVMNDLVDKIIADRKARGEQSDDLLTQMLNGKDPETGEPLDDGNISYQIITFLIAGHETTSGLLSFALYFLVKNPHVLQKVVEEAARVLVDPVPSYKQVKQLKYVGMVLNEALRLWPTFPAFSLYAKEDTVLGGEYPLEKGDEVMVLIPQLHRDKTIWGDDVEEFRPERFENPSAIPQHAFKPFGNGQRACIGQQFALHEATLVLGMMLKHFDFEDHTNYELDIKETLTLKPEGFVVKAKSKKIPLGGIPSPSTGQSAKKVRKKAENAHNTPLLVLYGSNMGTAEGTARDLADIAMSKGFAPQVATLDSHAGNLPREGAVLIVTASYNGHPPDNAKQFVDWLDQASADEVKGVRYSVFGCGDKNWATTYQKVPAFIDETLAAKGAENIADRGEADASDDFEGTYEEWREHMWSDVAAYFNLDIENSEDNKSTLSLQFVDSAADMPLAKMHGAFSTNVVASKELQQPGSARSTRHLEIELPKEASYQEGDHLGVIPRNYEGTVNRVTARFGLDASQQIRLEAEEEKLAHLPLAKTVSVEELLQYVELQDPVTRTQLRAMAAKTVCPPHKVELEALLEKQAYKEQVLAKRLTMLELLEKYPACEMKFSEFIALLPSIRPRYYSISSSPRVDEKQASITVSVVSGEAWSGYGEYKGIASNYLAELQEGDTITCFISTPQSEFTLPKDPETPLIMVGPGTGVAPFRGFVQARKQLKEQGQSLGEAHLYFGCRSPHEDYLYQEELENAQSEGIITLHTAFSRMPNQPKTYVQHVMEQDGKKLIELLDQGAHFYICGDGSQMAPAVEATLMKSYADVHQVSEADARLWLQQLEEKGRYAKDVWAG	specific colorimetric response	10.6 ± 1.38	200 ± 46
20-D3: P450 BM-3 variant, SEQ ID NO:11; 35-E11 plus H285R (protein, mutant P450 20-D3 protein sequence, 35-E11 plus H285R) TIKEMPQPKTFGELKNLPLLNTDKPVQALMKIADELGEIFKFEAPGCVTRYLSSQRLIKEACDESRFDKNLSQALKFFRDFSGDGLFTSWTHEINWKKAHNILLPSFSQQAMKGYHAMMVDIAVQLVQKWERLNADEHIEVSEDMTRLTLDTIGLCGFNYRFNSFYRDQPHPFIISMVRALDEVMNKLQRANPDDPAYDENKRQCQEDIKVMNDLVDKIIADRKARGEQSDDLLTQMLNGKDPETGEPLDDGNISYQIITFLIAGHETTSGLLSFALYFLVKNPRVLQKVVEEAARVLVDPVPSYKQVKQLKYVGMVLNEALRLWPTFPAFSLYAKEDTVLGGEYPLEKGDEVMVLIPQLHRDKTIWGDDVEEFRPERFENPSAIPQHAFKPFGNGQRACIGQQFALHEATLVLGMMLKHFDFEDHTNYELDIKETLTLKPEGFVVKAKSKKIPLGGIPSPSTGQSAKKVRKKAENAHNTPLLVLYGSNMGTAEGTARDLADIAMSKGFAPQVATLDSHAGNLPREGAVLIVTASYNGHPPDNAKQFVDWLDQASADEVKGVRYSVFGCGDKNWATTYQKVPAFIDETLAAKGAENIADRGEADASDDFEGTYEEWREHMWSDVAAYFNLDIENSEDNKSTLSLQFVDSAADMPLAKMHGAFSTNVVASKELQQPGSARSTRHLEIELPKEASYQEGDHLGVIPRNYEGTVNRVTARFGLDASQQIRLEAEEEKLAHLPLAKTVSVEELLQYVELQDPVTRTQLRAMAAKTVCPPHKVELEALLEKQAYKEQVLAKRLTMLELLEKYPACEMKFSEFIALLPSIRPRYYSISSSPRVDEKQASITVSVVSGEAWSGYGEYKGIASNYLAELQEGDTITCFISTPQSEFTLPKDPETPLIMVGPGTGVAPFRGFVQARKQLKEQGQSLGEAHLYFGCRSPHEDYLYQEELENAQSEGIITLHTAFSRMPNQPKTYVQHVMEQDGKKLIELLDQGAHFYICGDGSQMAPAVEATLMKSYADVHQVSEADARLWLQQLEEKGRYAKDVWAG	specific colorimetric response		
P450PMO: P450 BM-3 variant, SEQ ID NO:125; 7-7 plus G443A and D698G; propane monooxygenase (protein, Mutant P450PMO protein sequence, 7-7 plus G443A and D698G; propane monooxygenase) TIKEMPQPKTFGELKNLPLLNTDKPVQALMKIADELGEIFKFEAPGCVTRYISSQRLIKEACDESRFDKNLSQELKFFRDFGGDGLFTSWTHEINWKKAHNILLPSFSQQAMKGYHAMMVDIAVQLVQKWERLNADEHIEVSEDMTRLTLDTIGLCGFNYRFNSFYRDQPHPFIISMVRALDEVMNKPQRANPDDPAYDENKRQCQEDIKVMNDLVDKIIADRKARGEQSDDLLTQMLNGKDPETGEPLDDGNISYQIITFLIAGHETTSGLLSFALYFLVKNPHVLQKVVEEAARVLVDPVPSYKQVKQLKYVGMVLNEALRLWPTFPAFSLYAKEDTVLGGEYPLEKGDEVMVLIPQLHRDKTVWGDDVEEFRPERFENPSAIPQHAFKPFGNGQRACIGQQFALHEATLVLGMMLKHFDFEDHTNYELDIKETLTLKPEAFVVKAKSKKIPLGGIPSPSTGQSAKKVRKKAENAHNTPLLVLYGSNMGTAEGTARDLADIAMSKGFAPQVATLDSHAGNLPREGAVLIVTASYNGHPPDNAKQFVDWLDQASADEVKGVRYSVFGCGDKNWATTYQKVPAFIDETLAAKGAENIADRGEADASDDFEGTYEEWREHMWSDVAAYFNLDIENSEDNKSTLSLQFVDSAADMPLAKMHGAFSTNVVASKELQQPGSARSTRHLEIELPKEASYQEGGHLGVIPRNYEGTVNRVTARFGLDASQQIRLEAEEEKLAHLPLAKTVSVEELLQYVELQDPVTRTQLRAMAAKTVCPPHKVELEALLEKQAYKEQVLAKRLTMLELLEKYPACEMKFSEFIALLPSIRPRYYSISSSPRVDEKQASITVSVVSGEAWSGYGEYKGIASNYLAELQEGDTITCFISTPQSEFTLPKDPETPLIMVGPGTGVAPFRGFVQARKQLKEQGQSLGEAHLYFGCRSPHEDYLYQEELENAQSEGIITLHTAFSRMPNQPKTYVQHVMEQDGKKLIELLDQGAHFYICGDGSQMAPAVEATLMKSYADVHQVSEADARLWLQQLEEKGRYAKDVWAG		0.533 ± 0.083	190 ± 40
